Data published in the supplement of paper PMC9170038.

Test system: MS2 coat protein
Assay: apparent KD of MS2 coat protein; designed switch direction (-1 OFF switch, 1 ON switch): 1; higher = weaker reporter binding
Method in brief: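 On Illumina chips, designed RNA switches with common flanks were made by stalled E. coli RNA polymerase. Titrations with SNAP-549-labelled MS2 coat protein, doubling from 0.7 or 1.5 nM to 3 µM, were done with no input, with 200 uM small-molecule ligand, or with an oligonucleotide input. Apparent KD is the median per design over clusters, from curve fits of normalised cluster fluorescence.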

[1] = input ligand: microRNA oligo, concentration not stated
[2] = Eterna round: R95, input ligand: FMN 200 uM
[3] = Eterna round: R95, input ligand: microRNA oligo, concentration not stated
[4] = Eterna round: R95, input ligand: none

Sequence | apparent KD of MS2 coat protein (input ligand: FMN 200 uM) [nM] | apparent KD of MS2 coat protein [1] [nM] | apparent KD of MS2 coat protein (input ligand: none) [nM] | apparent KD of MS2 coat protein [2] [nM] | apparent KD of MS2 coat protein [3] [nM] | apparent KD of MS2 coat protein [4] [nM]
GGUCCAUCAUGAGGAUAUGGCACCUUAUUGGUGCCAGAAGGCAUGUCUAUGACAUGAGGAUCACCCAUGUAAAUAAAUUGGACC [Eli NG1ss - 94] (Eterna round: R96, puzzle: Same State NG 1) | 32.3 | 243 | 232 | – | – | –
UGCUUCGUGUAAGGAUAUGCAGCCGUUUCGGCUGCAGAAGGUACUAUAAUACAUGAGGAUCACCCAUGUCUCUCGCAUUGCGGG [salish99_SSng1_r04_303] (Eterna round: R96, puzzle: Same State NG 1) | 37.5 | 40.3 | 52.2 | – | – | –
GGGCCAGCUUGUGCUGGGCCUUCGCUUGCACAUGAGGAUCACCCAUGUCGUGUACAUGCUUGGUGCCCGUCUUUCCC [Photon Torp-15] (puzzle: Sensor for hsa-mir-208a) | – | – | – | 182 | 49.2 | 201
AUCCUACAUGAGGAUCACCCAUGUGACGCCUCGAUAGGAUAUGCGUGUGCCUUGGCGCAUGCAGAAGGAUUGUUGC [JL Aveso mod 7] (Eterna round: R96, puzzle: Same State 1) | – | 20.3 | – | – | – | –
GAGGAACAUGAGGAUCACCCAUGUGGGAUGGGACAAGGAUAUGUAGGUAGAGGAGAAGAGACAGAAGGUGUAGGAG [JR_SS1_Sub052] (puzzle: Same State 1) | – | – | – | 349 | 232 | 660
UCAAUCAUGUAAGGAUAUGCAGCCGAAACGGCUGCAGAAGGUACUAUAAUUACAUGAGGAUCACCCAUGUUAUAAAAUAAAUAU [Mat - Same State NG 1 - JL mod - D80] (Eterna round: R96, puzzle: Same State NG 1) | 40.9 | 92.7 | 160 | – | – | –
AUUAUACAUGAGGAUCACCCAUGUAAUUAAUUAAUUAAGAUCUAGGAUAUCAGCUCGUUUAGAGCUGAGAAGGAGAUCACAUGU [SSNG3/20-C3] (Eterna round: R96, puzzle: Same State NG 3) | – | 23.3 | – | – | – | –
UUGUUUCGUCAUUAACAUGAGGAUCACCCAUGUAUUGACCCAAAGGAUAUAUAUGUUUGUUUGUAAUAGAAGGUUGAUUGUUGU [JR_SSNG3_Sub091] (Eterna round: R96, puzzle: Same State NG 3) | 19.9 | 16.8 | 20.6 | – | – | –
UGGUCUCACUUAGGAUAUUAGCACCGAAAGAGCUAAGAAGGAGGUGAAACUCUCACAUGAGGAUCACCCAUGUACACCCUAGGG [Eternabot solution 3] (Eterna round: R96, puzzle: Same State NG 1) | 162 | 503 | 1080 | – | – | –
GUGGUCAGACAUGAGGAUCACCCAUGUGGAAUAAAUAAGGAGAAGGAUAUCUAAUAUAGGAUAUAAGAGAAGGUUUGGUUGGUG (Eterna round: R96, puzzle: Same State NG 3) | – | 63.2 | – | – | – | –
AUUAUUUAUGCAGGAUAUGAUUAACAUGAGGAUCACCCAUGUGGUGUUGUGAGUAAGGAGAGUGAUCAGAAGGGCAUUUGUUUU [JMF's solution 48] (Eterna round: R96, puzzle: Same State NG 2) | 386 | 321 | 402 | – | – | –
UUCCACGUUGCACAGGAUAUCCAAGCCGUGACAUGAGGAUCACCCAUGUCUAGUAGGCGACUAAGGGAGAAGGGUGUUGUCGUGC [Biuser] (puzzle: Same State 2) | – | – | – | 10.8 | 10.1 | 10.1
AGCUAUCGCGUACGAUAGCUGAAGCAUGUACAUGAGGAUCACCCAUGUCAUGUGCAGGCUUUUUGCUCGUCUUAUUG [JL-shm-2.30 JL mod] (puzzle: Sensor for hsa-mir-208a) | – | – | – | 68.9 | 13.3 | 75.1
GAGUGGAGGUAAGGAUAUAUAAUGAUAAUCACAGUAGAAGGUACUAACAUGAGGAUCACCCAUGUAGGACUAUACCAGAGAGGG [Parity 45 - Jieux - Same State NG 1] (Eterna round: R96, puzzle: Same State NG 1) | – | 11.9 | – | – | – | –
GUGGCGGGUUGAGGAUAUUGGUUGCCUAUGUUUAACAUGAGGAUCACCCAUGUGGGUUGCGGUUUCGAGAAGGUAGGUUGCUGG [salish99_SSNG2_r04_046] (Eterna round: R96, puzzle: Same State NG 2) | 228 | 109 | 188 | – | – | –
AUUAUACAUGAGGAUCACCCAUGUAAUUAAUUAAUUAAGAUCAAGGAUAUCAGCUCGUUUAGAGCUGAGAAGGUGAUCACAUGU [SSNG3/20-B3] (Eterna round: R96, puzzle: Same State NG 3) | – | 147 | – | – | – | –

Sequence | apparent KD of MS2 coat protein (input ligand: FMN 200 uM) [nM] | apparent KD of MS2 coat protein [1] [nM] | apparent KD of MS2 coat protein (input ligand: none) [nM] | apparent KD of MS2 coat protein [2] [nM] | apparent KD of MS2 coat protein [3] [nM] | apparent KD of MS2 coat protein [4] [nM]
CGAUGAUACUCAGGAAGGAGAGUAGAGGAACAUGAGGAUCACCCAUGUAUGAGCUUUUUGCUCGUCAUGAACAGGAG [JR_SHM208a_Sub009] (puzzle: Sensor for hsa-mir-208a) | – | – | – | 107 | 64.4 | 111
AAUAUUAAGGCGGACGUUAACCGCAACCGACAUGAGGAUCACCCAUGUGCUUCAAGCUCAGACAUCUCUUAUCGUCA [Arrizareat] (Eterna round: R96, puzzle: Sensor for hsa-mir-208a) | 84.3 | 59.4 | 79 | – | – | –
AUAGUUGCCGAAGGAUAUGAUGAGGAUCACCCAUCAGAAGGUCGGCUAUUGGGUGGAUAUGAGGAUCACCCGUGUUCUUUGGUC (Eterna round: R96, puzzle: Same State NG 1) | 22.4 | 16.7 | 22.9 | – | – | –
UUUUUAUAACAUGAGGAUCACCCAUGUGCGCGCACAAGGUUGUUGCUCGUCUUAUUUUUUUUUUUUUUUUUUUUUUU [viviankchen2] (puzzle: Sensor for hsa-mir-208a version 2) | – | – | – | 33.2 | 220 | 44.1
UUGUUUCGUCAUUAACAUGAGGAUCACCCAUGUAAAGGAGCAGAGGAUAUGCAUGUUUGAUUGUAGCAGAAGGCUGAUUGUUGU [JR_SSNG3_Sub034] (Eterna round: R96, puzzle: Same State NG 3) | 32.6 | 27.9 | 31.9 | – | – | –
CUGCUCGGGUGAGGAUAUGCCGCCGUUUCGGCUGCAGAAGGUGCUACGUUACAUGAGGAUCACCCAUGUCUCUGUUGUUUCGUG [salish99_SSNG1_r04_966] (Eterna round: R96, puzzle: Same State NG 1) | 108 | 60.7 | 76 | – | – | –
GGAGAGAGAGCGGAGGAUAUUCAAGGAGAGACAUGAGGAUCACCCAUGUAAGAGAGAGAGGAGAGGGAGAAGGCUGAGAGAGAGG [Altered State 2-11 - Jieux - Same State 2] (puzzle: Same State 2) | – | – | – | 25.1 | 25.9 | 27.2
GACCGCGAGGAAGGAUAUGGAGCCUUAAAGGCUCCAGAAGGUCCAUAAAGGACAUGAGGAUCACCCAUGUGGUGAGAAGCGGUC [Mat - Same State NG 1 - JL mod - D75] (Eterna round: R96, puzzle: Same State NG 1) | – | 711 | – | – | – | –
GGAGCCGGCCUAGGAUAUUUCAUAAAAAGACAUGAGGAUCACCCAUGUAGGCCAGAAGGCCUUGGGAAGAAGGAGGUCGGCUCC [Loop Effect - G29] (Eterna round: R96, puzzle: Same State NG 2) | 20.8 | 22.7 | 32.9 | – | – | –
AUUAUUUAUGCAGGAUAUGAUUAACAUGAGGAUCACCCAUGUGGUGUUGUGAGUAAGGAGAGUGAUCAGAAGGGCAUUGUUUUU [JMF's solution 46] (Eterna round: R96, puzzle: Same State NG 2) | 1450 | 473 | 475 | – | – | –
GCUCGCACGAUGACCCACAUGAGGAUCACCCAUGUGUGUGGGUAGGAUAUCUAGAUUAAGGAUGUAGAGAAGGGCCGAGCGAGC [SameState NG3 #23] (Eterna round: R96, puzzle: Same State NG 3) | 576 | 429 | 600 | – | – | –
CUCAAACAUGAGGAUCACCCAUGUUUUUUCAUGGGAGGAUAUCUAAGUUCAUUAUAUUCAGGAGAAGGCCUAUCUC [× ×•×ª×• ×ž×“×™× ×” × ×—×ª-06] (puzzle: Same State 1) | – | – | – | 54.5 | 36 | 30.3
CCGUAAAAUGGAGGAUAUGGAGCCUUAUUGGCUCCAGAAGGUCAUAAAACAUGAGGAUCACCCAUGUCGGCGGUCAAUAGACCG [Eli NG1ss - 78] (Eterna round: R96, puzzle: Same State NG 1) | – | 31.5 | – | – | – | –
AGGCUCAGACGAGGAUAUGGUCAUGGCGCUUCGGCGCAUACAUGAGGAUCACCCAUGUAGGGUGAUCAGAAGGCGUCUGAGCCA [SSNG2/9-A1] (Eterna round: R96, puzzle: Same State NG 2) | 76.8 | 255 | 365 | – | – | –
CAGCGCUGUCGAGAGGAUAUGUGGUGAUGGACAUGAGGAUCACCCAUGUUAGCGACAGCAUCACGGCAGAAGGCUCUACCGCUGC [Soteed Omei mod 30] (puzzle: Same State 2) | – | – | – | 31.2 | 40.6 | 23.1
CUGAGAUGUCAAGGAUAUGCUACCGUUUCGGUAGCAGAAGGUGAUCACAUGAGGAUCACCCAUGUAUGCAUGCGUGAGCGUGCU [JL SSNG1 3.59] (Eterna round: R96, puzzle: Same State NG 1) | 234 | 36.9 | 62 | – | – | –
